From paper PMC7506991, “Timeless couples G‐quadruplex detection with processing by DDX11 helicase during DNA replication”
Positions count from the first letter of the chain named.

What was measured:
[1] = biological target: T1, Timeless (optimised construct);Tipin (Homo sapiens;Homo sapiens, UniProt Q9UNS1;Q9BVW5 1-238+=GSTGST+331-1208;1-301, internal_change|); test: EMSA; 5 uM protein, 5 uM DNA; FA at 25 C, 10 nM DNA: DBD in 25 mM HEPES-NaOH pH 7.2, 150 mM KCl, 0.5 mM EDTA, 0.005% Tween-20; Timeless-Tipin in 25 mM HEPES pH 7.1, 150 mM KCl, 1 mM DTT, 5 mM MgCl2; EMSA in 25 mM HEPES pH 7.1, 150 mM KCl, 5 mM MgCl2, 1 mM DTT on ice, 1% agarose at 4 C; conditions: protein: recombinant;recombinant, tags: His14-SUMO removed;His6-GST removed, copies: 1;1, label: 5' 6FAM
Timeless DBD = Timeless DBD (Homo sapiens, UniProt Q9UNS1 816-954); test: fluorescence anisotropy; 150 mM KCl; FA at 25 C, 10 nM DNA: DBD in 25 mM HEPES-NaOH pH 7.2, 150 mM KCl, 0.5 mM EDTA, 0.005% Tween-20; Timeless-Tipin in 25 mM HEPES pH 7.1, 150 mM KCl, 1 mM DTT, 5 mM MgCl2; EMSA in 25 mM HEPES pH 7.1, 150 mM KCl, 5 mM MgCl2, 1 mM DTT on ice, 1% agarose at 4 C; conditions: protein: recombinant, tags: His14-SUMO removed
[2] = biological target: T1, Timeless (optimised construct);Tipin; test: fluorescence anisotropy; 150 mM KCl, 5 mM MgCl2; FA at 25 C, 10 nM DNA: DBD in 25 mM HEPES-NaOH pH 7.2, 150 mM KCl, 0.5 mM EDTA, 0.005% Tween-20; Timeless-Tipin in 25 mM HEPES pH 7.1, 150 mM KCl, 1 mM DTT, 5 mM MgCl2; EMSA in 25 mM HEPES pH 7.1, 150 mM KCl, 5 mM MgCl2, 1 mM DTT on ice, 1% agarose at 4 C; conditions: protein: recombinant;recombinant, tags: His14-SUMO removed;His6-GST removed, copies: 1;1, label: 5' 6FAM
[3] = G4 intramolecular with ssDNA flanks

Chain of Timeless DBD (Q9UNS1 816-954): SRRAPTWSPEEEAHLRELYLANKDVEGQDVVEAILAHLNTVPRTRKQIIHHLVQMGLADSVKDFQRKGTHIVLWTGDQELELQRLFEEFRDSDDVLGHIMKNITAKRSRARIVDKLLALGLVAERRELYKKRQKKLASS
T1 sequence (Q9UNS1 other isoform, or with tags, fused parts or gaps |, chain 1 of 2): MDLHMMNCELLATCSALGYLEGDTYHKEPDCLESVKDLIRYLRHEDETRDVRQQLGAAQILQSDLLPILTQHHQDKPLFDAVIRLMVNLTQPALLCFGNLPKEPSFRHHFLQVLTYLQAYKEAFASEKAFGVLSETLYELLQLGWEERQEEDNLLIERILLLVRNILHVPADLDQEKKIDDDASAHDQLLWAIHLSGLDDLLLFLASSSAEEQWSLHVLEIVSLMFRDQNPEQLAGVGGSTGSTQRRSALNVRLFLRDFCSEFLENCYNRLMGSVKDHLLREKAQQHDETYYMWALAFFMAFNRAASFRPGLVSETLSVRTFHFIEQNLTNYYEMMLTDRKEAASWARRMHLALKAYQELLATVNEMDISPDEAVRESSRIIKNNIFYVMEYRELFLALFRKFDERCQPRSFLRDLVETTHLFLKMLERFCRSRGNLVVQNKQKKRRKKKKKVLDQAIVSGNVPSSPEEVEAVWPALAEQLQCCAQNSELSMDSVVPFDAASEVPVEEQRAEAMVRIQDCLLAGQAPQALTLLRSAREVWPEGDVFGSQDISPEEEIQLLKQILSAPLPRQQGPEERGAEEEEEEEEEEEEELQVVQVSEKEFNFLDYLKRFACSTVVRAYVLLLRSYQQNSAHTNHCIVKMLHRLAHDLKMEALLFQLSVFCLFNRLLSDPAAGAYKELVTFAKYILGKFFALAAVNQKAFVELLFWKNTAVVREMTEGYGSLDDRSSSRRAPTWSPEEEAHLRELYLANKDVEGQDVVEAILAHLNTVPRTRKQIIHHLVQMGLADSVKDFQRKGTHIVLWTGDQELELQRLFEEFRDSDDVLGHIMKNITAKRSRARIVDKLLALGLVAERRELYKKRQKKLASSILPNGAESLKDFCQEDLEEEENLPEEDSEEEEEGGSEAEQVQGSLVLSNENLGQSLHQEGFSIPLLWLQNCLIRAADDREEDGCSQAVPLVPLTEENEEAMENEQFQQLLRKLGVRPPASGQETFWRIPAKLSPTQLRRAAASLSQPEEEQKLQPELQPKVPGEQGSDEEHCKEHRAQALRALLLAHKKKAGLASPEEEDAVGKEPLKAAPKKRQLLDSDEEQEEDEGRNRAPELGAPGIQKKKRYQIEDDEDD
T1 sequence (Q9BVW5 whole entry, change not shown, chain 2 of 2): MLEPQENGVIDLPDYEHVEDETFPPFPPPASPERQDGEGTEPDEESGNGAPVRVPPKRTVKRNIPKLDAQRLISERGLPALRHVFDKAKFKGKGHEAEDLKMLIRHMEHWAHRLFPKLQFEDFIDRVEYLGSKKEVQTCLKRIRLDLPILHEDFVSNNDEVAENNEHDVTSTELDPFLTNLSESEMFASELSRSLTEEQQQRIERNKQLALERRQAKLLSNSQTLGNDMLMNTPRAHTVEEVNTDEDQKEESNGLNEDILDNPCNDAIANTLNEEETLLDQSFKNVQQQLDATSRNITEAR

B1: ssHP (structured_DNA)
DNA: ACGAGAGCTAGCACATTTTGAGGCTGCGTTTCGCAGCCTCAATTTCACGTAGAACCTGT
- binding result ([1]; hairpin with ssDNA flanks): no binding

B2: BU1 +3.5 (structured_DNA)
DNA: AGCTAGCACATTTTAAGGGCTGGGTGGGTGCTGTCAAGGGCTGGGTTTTCACGTAGAA
- binding result [1, 3]: binds

Binder: TGAGGGTGGGTAGGGTGGGTAA (structured_DNA) [G4 DNA (MYC, 1XAV) Cy3]
- Kd (Timeless DBD; label: 3' Cy3, G4 intramolecular): ~120 nM

Binder: ATAAGAGTGGTTAGAGTGTA (ssDNA) [ss20]
- binding result ([2]; single strand): no binding

B3: ds20 (dsDNA)
DNA 1: ATAAGAGTGGTTAGAGTGTA
DNA 2: TACACTCTAACCACTCTTAT
- binding result ([2]; blunt): no binding

B4: dsDNA (Fig 2D) (dsDNA)
DNA 1: TGAGAGTGAGTAGAGTGAGTAA
DNA 2: TTACTCACTCTACTCACTCTCA
- Kd (Timeless DBD; blunt): ~800 nM

Binder: TGAGAGTGAGTAGAGTGAGTAA (ssDNA) [ssDNA (Fig 2D)]
- binding result (Timeless DBD; single strand): binds

B5: ssG4 (structured_DNA)
DNA: ACGAGAGCTAGCACATTTTGAGGGTGGGTAGGGTGGGTAATTTTCACGTAGAACCTGT
- Kd [2, 3]: 600 ± 30 nM

B6: ss (ssDNA)
DNA: B5 DNA with G23T, G26C, G27A, G32C, G35C, G36T
- binding result ([1]; single strand): no binding

Binder: TGAGGGTGGGTAGGGTGGGTAA (structured_DNA) [1XAV]
- binding result ([2]; G4 intramolecular): binds
